According to patent publication US20190185865A1, “USE OF PROKARYOTIC TRANSCRIPTIONAL ACTIVATORS AS METABOLITE BIOSENSORS IN EUKARYOTIC CELLS” (Danmarks Tekniske Universitet, priority 2016, published 2019):
Like-named read-outs stand apart in the source and are kept apart here.

What was measured:
[1] = target: T1, BenM (Acinetobacter baylyi, UniProt O68014); experiment: Screening 17 yeast strains with BenO at different positions upstream of TATA1 of 209 bp CYC1p; format: cell-based; design: expressed in transfected cells; promoters TDH3p, TEF1p, RNR2p or REV1p; conditions: BenM from REV1p, 1.4 mM CCM, 24 h
T1 sequence (O68014 whole entry, looked up): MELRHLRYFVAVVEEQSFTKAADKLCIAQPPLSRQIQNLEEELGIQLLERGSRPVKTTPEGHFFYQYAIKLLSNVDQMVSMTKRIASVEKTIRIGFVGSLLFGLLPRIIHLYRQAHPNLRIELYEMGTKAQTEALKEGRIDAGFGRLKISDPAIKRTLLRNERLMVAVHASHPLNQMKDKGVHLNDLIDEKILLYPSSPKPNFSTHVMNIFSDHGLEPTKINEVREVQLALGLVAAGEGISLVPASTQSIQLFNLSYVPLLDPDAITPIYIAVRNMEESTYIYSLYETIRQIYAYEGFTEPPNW
Description: FIG. 14. Screening 17 yeast strains expressing BenM from the REV1p in combination with CYC1p reporter promoter of 209 bp with BenO placed at different positions upstream of TATA1. The fold induction (mean±s.d.) was calculated by dividing mean fluorescence intensity (MFI) in medium with 1.4 mM CCM by the MFI in control medium as measured by flow cytometry after 24 h of growth for three biological replicates.
In addition to this, the present inventors also tested 17 different positions for positioning of the BenM binding site (benO).

[2] = test system: 209 bp_CYC1p_T1 promoter; experiment: LTTR-mediated activation of GFP expression from 209 bp_CYC1p_T1 reporter promoter in yeast, without ligand; format: cell-based, Saccharomyces cerevisiae; conditions: LTTR expressed from strong TDH3 promoter
Description: (§1) Events were analyzed using FlowJo software (TreeStar Inc.).
The genetic device developed in this study represents to the best of our knowledge the first example of transplanting a prokaryotic transcriptional activator into a eukaryotic chassis and successfully using it to activate gene expression without the need for modifying the protein beyond codon optimization. […] To test the generality of the biosensor design for onboarding other small-molecule binding transcriptional activators as biosensors in yeast we selected four other candidates from the LTTR family; FdeR from Herbaspirillum seropedicae, PcaQ from Sinorhizobium meliloti, ArgP from Escherichia coli, and MdcR from Klebsiella pneumonia, with co-inducers naringenin, protocatechuic acid (PCA), L-arginine, and malonic acid, respectively. In this proof-of-principle study we selected the four candidates based on a minimal set of information, including knowledge about operator sequences, experimental evidence for ligand-inducible control of target operons, and their mode-of-action within native chassis (ie. activation, FIG. 1). Furthermore all of these metabolites can passively diffuse across the yeast plasma membrane, with the exception of malonic acid, which requires the expression of the dicarboxylic acid transporter MAE1 from Schizosaccharomyces pombe. […]

[3] = test system: CYC1 promoter with BenM operator (BenO); conditions: BenM from TEF1 promoter
Description: Cells grown for 24 h in control (mineral medium, pH 4.5) or inducing medium (mineral medium pH 4.5+1.4 mM CCM, 1.4 mM protocatechuic acid, 10 mM malonic acid, 0.2 mM naringenin, or 50 mM L-arginine) were diluted into PBS to arrest cell growth. Cells were then analyzed by flow cytometry using a Fortessa flow cytometer (Becton Dickinson) with a blue laser (488 nm), for validation of single strains. For each strain 10,000 single-cell events were recorded. Events were analyzed using FlowJo software (TreeStar Inc.). The fluorescence arithmetic mean of the gated cell population was calculated, and the fold-change determined by dividing the mean fluorescence of the induced (ON) state with the mean fluorescence of the control (OFF) state. For flow cytometry for CCM and naringenin producing cells we tested mean fluorescence intensities from 10,000 cells pr. strain following 72 and 48 h, respectively. The data represent the average of three (n=3) biological replicates and error bars correspond to the standard deviation between these measurements.
Initially, BenO was introduced into the 491 bp CYC1 promoter immediately upstream of one of the two TATA boxes—TATA-1β (designated 491 bp_CYC1p_BenO_T1) or TATA-2α (designated 491 bp_CYC1p_BenO_T2), or upstream of both (designated 491 bp_CYC1p_BenO_T1/T2)(FIG. 2a). Outputs from these engineered promoters were compared by flow cytometry to expression from the native CYC1p (491 bp_CYC1p) using GFP as the reporter (FIG. 1a and FIG. 2a).

[4] = test system: BenO-containing human cytomegalovirus (CMV) promoter; conditions: 24 h, GFP normalized by RFP; p<0.05 (t-test)
Description: CHO cells were transfected with a plasmid with the BenO-containing human cytomegalovirus (CMV) promoter controlling the expression of GFP as well as an empty vector (− BenM) or a vector expressing BenM (+ BenM). Total GFP expression was measured after 24 h, and normalized by total RFP expression. Average and standard deviation are based on three biological replicates. *; p<0.05 (t-test).
For testing the reporter promoter design with other promoter backbones AND in another eukaryotes, Chinese hamster ovary cells was transformed using the human cytomegalovirus promoter backbone (CMV) instead of the CYC1 promoter backbone used in yeast.
Just as in the case with the yeast design using CYC1 promoter as a backbone, the present inventors put the binding site (benO) for the prokaryotic transcriptional activator BenM 6 bp upstream of the TATA box the CMV promoter and scored reporter gene activity (GFP fluorescence) in the presence and absence of the transcriptional activator BenM.

[5] = target: T1, BenM; experiment: CCM-induced GFP expression in yeast strains combining BenM expression cassettes and CYC1p reporter promoter variants (flow cytometry); format: cell-based, Saccharomyces cerevisiae; design: expressed in transfected cells; host or cells: Saccharomyces cerevisiae CEN.PK113-5A, chromosomal integration; promoters TDH3p, TEF1p, RNR2p or REV1p; conditions: 30° C. vs 37° C.
Description: Strains, chemicals and media. Saccharomyces cerevisiae CEN.PK102-5B (MATa ura3-52 his3Δ1 leu2-3/112 MAL2-8^c SUC2), CEN.PK113-5A (MATa, trp1 his3Δ1 leu2-3/112 MAL2-8^c SUC2) and CEN.PK113-7D (wild type, MATa MAL2-8^c SUC2) strains were obtained from Peter Kotter (Johann Wolfgang Goethe-University Frankfurt, Germany). In principal any other yeast strains may be used, such as one obtained from public repository EuroScarf. EasyClone plasmids used in this work are described in Jensen, N. B. et al. EasyClone: method for iterative chromosomal integration of multiple genes in Saccharomyces cerevisiae. FEMS Yeast Res. 14, 238-48 (2014). Escherichia coli strain DH5a was used as a host for cloning and plasmid propagation. The chemicals and Pfu TURBO DNA polymerase were commercially obtained (Sigma-Aldrich and Agilent Technologies Inc., respectively). All acids used were >97% in purity. S. cerevisiae cells were grown at 30° C. in synthetic complete medium as well as drop-out media and agar plates were prepared using pre-mixed drop-out powders (Sigma-Aldrich). Mineral medium was freshly prepared as described previously. For all media containing diacids, 1.4 mM of the individual diacids were dissolved in mineral medium and pH adjusted to 4.5 before sterile filtration. […]
as §1

B1: BenM: CCM-inducible LysR-type transcriptional activator from Acinetobacter sp ADP1, codon-optimized for yeast (protein, UniProt O68014 1-304, looked up)
HTH-type transcriptional …: T1 sequence (O68014 whole entry, looked up)
modifications: codon-optimized for yeast
For B1, the “response with BenO at 17 different positions upstream of TATA box” value [1] was “Only position 6 upstream of the TATA box gave a significant response”, the “activation of GFP expression compared to yeast cells without expression of an LTTR” value [2] was 8.1 × and the “induction of expression compared to promoter activity without co-expression of BenM” value ([3]; 491 bp_CYC1p_BenO_T1/T2, no CCM) was 5 fold. For the same molecule, the “induction of expression compared to promoter activity without co-expression of BenM” value ([3]; 491 bp_CYC1p_BenO_T1, no CCM) was 20 fold, the “reduction in expression upon co-expression of BenM” value ([3]; 491 bp_CYC1p_BenO_T2, no CCM) was 30% and the “effect of BenM on expression of native CYC1p without BenO” value ([3]; native 491 bp CYC1p) was “did not increase expression”. The “reporter (GFP) expression in CHO with vs without BenM” value [4] was “activates reporter expression” and the “dynamic range in output by temperature” value [5] was “higher dynamic range in output at 30 °C compared to 37 °C”.
